According to patent US20240383984A1 (Genentech, published 2024):
Numbering of substitutions follows the chain as printed.

T1: human FcRH3 (BIACORE analyte) (human, UniProt Q96P31 18-573, limits assumed)
T1 construct: also called huFcRH3
T1 sequence (looked up): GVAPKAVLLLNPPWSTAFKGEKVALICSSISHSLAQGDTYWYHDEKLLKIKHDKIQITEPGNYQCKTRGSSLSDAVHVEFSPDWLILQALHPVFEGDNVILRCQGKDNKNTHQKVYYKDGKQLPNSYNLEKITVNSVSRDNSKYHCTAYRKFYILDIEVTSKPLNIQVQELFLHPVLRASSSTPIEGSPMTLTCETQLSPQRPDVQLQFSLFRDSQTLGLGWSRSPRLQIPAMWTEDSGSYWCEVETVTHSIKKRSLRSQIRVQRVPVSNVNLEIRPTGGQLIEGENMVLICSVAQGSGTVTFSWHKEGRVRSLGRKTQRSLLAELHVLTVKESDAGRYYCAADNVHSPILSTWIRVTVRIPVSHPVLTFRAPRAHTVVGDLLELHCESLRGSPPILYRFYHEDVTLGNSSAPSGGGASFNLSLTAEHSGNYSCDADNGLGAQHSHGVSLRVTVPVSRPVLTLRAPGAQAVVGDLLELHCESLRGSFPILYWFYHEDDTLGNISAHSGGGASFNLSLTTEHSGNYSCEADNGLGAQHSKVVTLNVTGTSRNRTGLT

T2: cynomolgus FcRH5 (full-length, on cells) (cynomolgus monkey)
T2 construct: also called SVT2-Cyno-FcRH5; cyno FcRH5
T2 chain: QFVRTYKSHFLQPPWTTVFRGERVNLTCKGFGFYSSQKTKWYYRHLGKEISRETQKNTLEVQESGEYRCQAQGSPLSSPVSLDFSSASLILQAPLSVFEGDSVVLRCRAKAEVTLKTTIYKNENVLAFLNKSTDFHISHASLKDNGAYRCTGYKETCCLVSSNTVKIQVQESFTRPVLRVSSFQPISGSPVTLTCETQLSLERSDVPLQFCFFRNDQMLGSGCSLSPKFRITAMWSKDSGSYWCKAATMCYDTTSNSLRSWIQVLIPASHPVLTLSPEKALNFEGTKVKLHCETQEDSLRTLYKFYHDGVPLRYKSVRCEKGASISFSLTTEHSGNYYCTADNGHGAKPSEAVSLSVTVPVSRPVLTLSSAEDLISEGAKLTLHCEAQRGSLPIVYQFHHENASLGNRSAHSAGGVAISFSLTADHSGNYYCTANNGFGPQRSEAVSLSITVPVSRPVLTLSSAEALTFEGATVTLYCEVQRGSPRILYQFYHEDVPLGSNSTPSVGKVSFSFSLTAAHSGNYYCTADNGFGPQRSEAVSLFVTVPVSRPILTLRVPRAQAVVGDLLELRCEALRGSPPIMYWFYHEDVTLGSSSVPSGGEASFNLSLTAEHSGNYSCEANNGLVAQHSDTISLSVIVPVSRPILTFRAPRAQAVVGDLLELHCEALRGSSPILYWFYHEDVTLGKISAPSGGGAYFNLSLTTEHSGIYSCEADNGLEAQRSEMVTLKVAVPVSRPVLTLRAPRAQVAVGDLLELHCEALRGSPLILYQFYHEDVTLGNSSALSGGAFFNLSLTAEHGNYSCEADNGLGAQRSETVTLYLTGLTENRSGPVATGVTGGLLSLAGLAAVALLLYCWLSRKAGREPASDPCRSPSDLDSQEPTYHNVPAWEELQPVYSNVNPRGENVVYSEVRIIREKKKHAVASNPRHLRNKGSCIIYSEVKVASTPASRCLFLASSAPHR

T3: human FcRH3 (full-length, on SVT2 cells) (human, UniProt Q96P31 18-734)
T3 construct: whole, on cells; also called SVT2-FcRH3
T3 sequence (looked up): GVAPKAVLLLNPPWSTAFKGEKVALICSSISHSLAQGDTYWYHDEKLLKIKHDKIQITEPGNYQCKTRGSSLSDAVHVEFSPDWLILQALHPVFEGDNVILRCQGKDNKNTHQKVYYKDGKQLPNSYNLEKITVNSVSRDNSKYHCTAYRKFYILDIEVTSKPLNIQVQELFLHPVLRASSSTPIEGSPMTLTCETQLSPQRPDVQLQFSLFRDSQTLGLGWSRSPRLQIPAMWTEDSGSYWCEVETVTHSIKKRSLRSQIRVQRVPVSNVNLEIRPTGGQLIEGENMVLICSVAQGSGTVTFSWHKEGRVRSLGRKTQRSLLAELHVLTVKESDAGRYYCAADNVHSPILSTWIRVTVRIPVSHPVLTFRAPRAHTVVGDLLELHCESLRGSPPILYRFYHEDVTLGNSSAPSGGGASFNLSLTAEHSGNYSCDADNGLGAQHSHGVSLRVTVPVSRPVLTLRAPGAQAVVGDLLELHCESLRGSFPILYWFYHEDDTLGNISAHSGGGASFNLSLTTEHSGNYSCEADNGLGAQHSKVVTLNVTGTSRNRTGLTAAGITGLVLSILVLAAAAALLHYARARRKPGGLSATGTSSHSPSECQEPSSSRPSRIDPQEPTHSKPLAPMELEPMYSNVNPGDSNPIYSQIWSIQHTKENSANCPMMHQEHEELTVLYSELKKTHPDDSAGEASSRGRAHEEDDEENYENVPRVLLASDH

T4: cynomolgus E11 domain protein (cynomolgus monkey)
T4 construct: whole entry named; also called cyno E11
T4 chain: T2 chain

B1: hu1G7.v1.4/38E4.v1 TDB (bispecific antibody, V domains shown)
VH 1: EVQLVESGPGLVKPSETLSLTCTVSGFSLTRFGVHWVRQPPGKGLEWLGVIWRGGSTDYNAAFMSRLTISKDNSKNQVSLKLSSVTAADTAVYYCSNHYYGSSDYALDNWGQGTLVTVSS
VL 1: DIQMTQSPSSLSASVGDRVTITCKASQDVRNLVVWFQQKPGKAPKLLIYSGSYRYSGVPSRFSGSGSGTDFTLTISSLQPEDFATYYCQQHYSPPYTFGQGTKVEIK
VH 2: EVQLVQSGAEVKKPGASVKVSCKASGFTFTSYYIHWVRQAPGQGLEWIGWIYPENDNTKYNEKFKDRVTITADTSTSTAYLELSSLRSEDTAVYYCARDGYSRYYFDYWGQGTLVTVSS
VL 2: DIVMTQSPDSLAVSLGERATINCKSSQSLLNSRTRKNYLAWYQQKPGQSPKLLIYWTSTRKSGVPDRFSGSGSGTDFTLTISSLQAEDVAVYYCKQSFILRTFGQGTKVEIK
notes: knob-into-hole TDB; also called 1G7.v1.4 TDB; 1G7.v1.4 (TDB format)
B2: 1G7.v85/38E4.v1 TDB (bispecific antibody, V domains shown)
VH 1: B1 VH 1 with M64V
VL 1: B1 VL 1
VH 2: B1 VH 2
VL 2: B1 VL 2
notes: knob-into-hole TDB; also called 1G7.v85 TDB; 1G7.v85 (TDB format)
B3: hu1G7.v1.13.1/38E4.v1 TDB (bispecific antibody, V domains shown)
VH 1: B1 VH 1
VL 1: B1 VL 1 with S52Y, S56T, S93Q
VH 2: B1 VH 2
VL 2: B1 VL 2
notes: knob-into-hole TDB; also called 1G7.v1.13.1 TDB
B4: hu1G7.v1.1/38E4.v1 TDB (bispecific antibody, V domains shown)
VH 1: B1 VH 1
VL 1: B1 VL 1 with H91Q
VH 2: B1 VH 2
VL 2: B1 VL 2
notes: knob-into-hole TDB; also called 1G7.v1.1 TDB
B5: hu1G7.v1.2/38E4.v1 TDB (bispecific antibody, V domains shown)
VH 1: B1 VH 1
VL 1: B1 VL 1 with S52Y, Y53N, H91Q, Y92F, S93Q
VH 2: B1 VH 2
VL 2: B1 VL 2
notes: knob-into-hole TDB; also called 1G7.v1.2 TDB
B6: hu1G7.v1.3/38E4.v1 TDB (bispecific antibody, V domains shown)
VH 1: B1 VH 1
VL 1: B1 VL 1 with L32I, H91Q
VH 2: B1 VH 2
VL 2: B1 VL 2
notes: knob-into-hole TDB; also called 1G7.v1.3 TDB
B7: hu1G7.v1.13/38E4.v1 TDB (bispecific antibody, V domains shown)
VH 1: B1 VH 1 with L48I
VL 1: B1 VL 1 with S52Y, S56T, S93Q
VH 2: B1 VH 2
VL 2: B1 VL 2
notes: knob-into-hole TDB; also called 1G7.v1.13 TDB
B8: 15G8 (antibody, mouse IgG2a, V domains shown)
VH: EVQLQQSGPELVKPGASVKMSCKASGYTFTNYVIHWMKQKPGQGLEWIGYISPYNDYTKYNEKFEGKATLTSDKSSNTAYMELSSLTSEDSAVYYCARRDYYGSSDYWGQGTTLTVSS
VL: QIVLTQSPAIMSASPGEKVTMTCSASSSVDYMHWYQQKSGTSPKKWIYDTSKLASGVPARFSGSGSGTSYSLTIGSMEAEDAATYYCQQWSSNPPTFGGGTKLEIK
notes: mouse mAb, Campaign C; recombinant murine IgG2a for SPR; also called mAb 15G8
B9: 17B1 (antibody, mouse IgG2a, V domains shown)
VH: QVQLQQSGPELVRPGVSVKISCKGSGYTFTHYAMHWVKQSHTKSLEWIGMISSSSGNTNFNQKFMDKATMTVDKSSTTAYLELARLTFGDSAIYYCARWSYYALFDYWGQGTTVTVSS
VL: ENVLTQSPAIMSASPGEKVTMTCSADSSVDYIHWYQQKSNTSPKLWIYDTSKLASGVPGRFSGSGSGNSYSLTISSMEAEDFATYYCFQGSGYPLTFGSGTKLELK
notes: mouse mAb, Campaign C; recombinant murine IgG2a for SPR

target: T1, human FcRH3 (BIACORE analyte); assay: BIACORE

Row | Kd [nM] | Binder
1 | ~80 | B1
2 | ~90 | B2

Target: T2, cynomolgus FcRH5 (full-length, on cells)
Assay: FACS, SVT2 cells, 3 µg/ml
Experimental: (§1) Human FcRH5, cyno FcRH5, human FcRH1, FcRH2, FcRH3, and FcRH4 transfected mouse SVT2 cells were used to test binding and cross-reactivity of FcRH5 TDBs. The method was carried out as follows. Cultured SVT2 cells were lifted using non-enzyme cell dissociation buffer (Sigma, #C5914). 1×10⁵ cells were suspended in 100 μL and incubated with FcRH5 TDBs at 3 μg/ml. […] Cells were washed twice with FACS buffer before flow cytometry analysis was carried out on a FACSCalibur.

Row | binding result | Binder
3 | binds | B3
4 | binds | B4
5 | binds | B5
6 | binds | B6
7 | binds | B7

target: T3, human FcRH3 (full-length, on SVT2 cells); assay: FACS, SVT2 cells, 3 µg/ml
Experimental: as §1

Row | binding result | Binder
8 | binds | B3
9 | binds | B4
10 | binds | B5
11 | binds | B6
12 | binds | B7

Target: T4, cynomolgus E11 domain protein
Assay: SPR, IgG captured on protein A, monovalent
Experimental: *E11 domain, transmembrane domain, and cytoplasmic domains of human FcRHS. §Surface plasmon resonance BIACORE * KD, monovalent affinity. Human E11 domain experiments were performed 1 to 3 times and averaged.
Briefly, test antibodies were captured on flow cells 2, 3 or 4 with flow cell 1 as a reference on a protein A Series S CM5 chip (GE Life Sciences, Piscataway, NJ). An FcRH5 protein fragment was used as analyte, with a flow rate of 30 μl/minute. Between injections the capture surface was regenerated by a 30 second injection of 10 mM glycine, pH 1.5 at a flow rate of 10 μl/minute. Interactions were assessed at 25° C. in 10 mM HEPES pH 7.4, 150 mM NaCl, 0.05% Tween 20 (HBSP). Reference data from the reference flow cell and from injection of buffer alone was subtracted prior to kinetic analysis. Kinetic information was calculated by fitting data to a 1:1 binding model. Reference subtraction and data fitting were performed using BIAevaluation software (GE Life Sciences, Piscataway, NJ).

Row | Kd [nM] | Binder
13 | 9.1 | B8
14 | 27 | B9
